The supplement of paper PMC7125110
± gives the standard error. This sample holds only a part of the variants without activity.

B1: glmS ribozyme (parent)
chain: AUAAAAGCGCCAGAACUACAGAAAUGUAGUUGACGAGGAGGAGGUUUAUCGAAUUUUCGGCGGAUGCCUCCAAA

What was measured:
Details in all cases: with glucosamine-6-phosphate
glucosamine-6-phosphate [1] = variants of: B1; experiment: self-cleavage kobs at 160 uM GlcN6P; higher = faster cleavage; RNA array
In short: (§1)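 kobs was derived by fitting per-tile medians to one- or two-exponential decays after normalising signals to baseline and to non-cleaving reference variants. Those signals came from barcoded ribozyme variants transcribed in situ by E. coli RNA polymerase on sequenced MiSeq chips, followed through a hybridised Cy3 probe at 37 °C and imaged over ~14 h. Glucosamine-6-phosphate (40 μM to 10 mM) in HEPES/KCl/Mg(OAc)2 buffer was flowed in. Weighted Michaelis–Menten fits across concentrations then gave kcat and KM.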

glucosamine-6-phosphate [2] = variants of: B1; experiment: self-cleavage kobs at 10000 uM GlcN6P; higher = faster cleavage; RNA array
In short: as §1

glucosamine-6-phosphate [3] = variants of: B1; experiment: self-cleavage kobs at 40 uM GlcN6P; higher = faster cleavage; RNA array
In short: as §1

glucosamine-6-phosphate [4] = variants of: B1; experiment: self-cleavage kobs at 640 uM GlcN6P; higher = faster cleavage; RNA array
In short: as §1

glucosamine-6-phosphate [5] = variants of: B1; experiment: self-cleavage kobs at 2500 uM GlcN6P; higher = faster cleavage; RNA array
In short: as §1

| Variant | self-cleavage kobs at 160 uM GlcN6P (glucosamine-6-phosphate [1]) | self-cleavage kobs at 10000 uM GlcN6P (glucosamine-6-phosphate [2]) | self-cleavage kobs at 40 uM GlcN6P (glucosamine-6-phosphate [3]) | self-cleavage kobs at 640 uM GlcN6P (glucosamine-6-phosphate [4]) | self-cleavage kobs at 2500 uM GlcN6P (glucosamine-6-phosphate [5]) |
| --- | --- | --- | --- | --- | --- |
| AUAAAGGAGCCAGAACUACAGAAAUGUAGUUGACGAGGAGGAGGUUUCUCGAAUUUUCGGCGGAUGCCUCCAAA | < 1e-05 s⁻¹ |  |  |  |  |
| ACAAAAGCUCCAGAACUACAGAAAUGUAGUUGACGAGGAGGAGGUUUAUCGAAUUUUUGGCGGAUGCCUCCAAA | < 1e-05 s⁻¹ | < 1e-05 s⁻¹ |  |  |  |
| AUAAAAGCGCCAGAACUACAGAAAUGUAGUUGACGAGGAGGAGGUUUAUCGAAUUUUCGGCGGAUGCCCCGAAA | 0.000225 ± 0.00011 s⁻¹ | 6.79e-05 ± 9e-06 s⁻¹ | 3.93e-05 ± 1.3e-05 s⁻¹ | 6.76e-05 ± 1.6e-05 s⁻¹ | 7.01e-05 ± 1.5e-05 s⁻¹ |
| AUAAAGGCGCUAGAUCUACAGAAAUGUAGUUGACGAGGAGGAGGUUUAUUGAAUUUUCGGCGGAUGCCUCCAAA | < 1e-05 s⁻¹ | < 1e-05 s⁻¹ |  |  |  |
| AUAAACGCGCCAGAACUACAGAAAUGUAGUUGACGAGGAGGAGGUUUAUCGAAUUUCCGGCGGAUGCCUCCAAA | < 1e-05 s⁻¹ | < 1e-05 s⁻¹ |  | < 1e-05 s⁻¹ | < 1e-05 s⁻¹ |
| AUAAACGUGCCAGAACUACAGAAAUGUAGUUGAAGAGGAGGAGGUUUAUCGAAUUUUCGGCGGAUGCCUCCAAA | < 1e-05 s⁻¹ |  |  | < 1e-05 s⁻¹ | < 1e-05 s⁻¹ |
| AUAAAGGCGCCAGAACUACAGAAAUGUAGUUGACGAGGAGGAGGUUUAUGGAACUUUCGGCGGAUGCCUCCAAA | 5.66e-05 ± 2e-05 s⁻¹ |  |  | 5.17e-05 ± 2.4e-05 s⁻¹ |  |
| AUAAAGGCGCCAGAUCUACAGAAAUGUAGUUGACGAGGAGGAGGUUUAUCGUAUUUUCGGCGGAUGCCUCCAAA | < 1e-05 s⁻¹ |  |  | < 1e-05 s⁻¹ | < 1e-05 s⁻¹ |
| AUAAACCCGCCAGAACUACAGAAAUGUAGUUGCCGAGGAGGAGGUUUAUGGCAUUUUCGGCGGACGCCUCCAAA | < 1e-05 s⁻¹ |  |  |  |  |
| AUAAACGCGCCAGAAUUACAGAAAUGUAGUUGACGAGGAAGAGGUUUAUCGAAUUUCCGGCGGAUGCCACCAAA | < 1e-05 s⁻¹ |  |  |  |  |
| AUAAACGCGCCAGAACUACAGAAAUGUAGUUGACGAGGAGUAGGUUUAUCGAAUUUUCGGCGGAUGCUUACAAA | < 1e-05 s⁻¹ |  |  |  | 3.76e-05 ± 1.6e-05 s⁻¹ |
| AUAAAGGCGCCUGAACUACAGAAAUGUAGUUGACGCGGAGGACGUUUAUCGAAUUUUCGGCGGAUGCCUCCAAA | < 1e-05 s⁻¹ |  |  | < 1e-05 s⁻¹ | < 1e-05 s⁻¹ |
| AUAAACGCGCCAGAUCUACAGAAAUGUAGUUGACGAGGAGGAGGUUUAUCGAAUUUUCGGCGGAUGCCUCGAAA | < 1e-05 s⁻¹ |  |  |  |  |
| AUAAACGCGCCAGAACUACAGAAAUGUAGUUGACGAGGAGGAGUUUUAUCGAAUUUUCGGCGGAUGCCUCCAAA | < 1e-05 s⁻¹ | < 1e-05 s⁻¹ |  | < 1e-05 s⁻¹ | < 1e-05 s⁻¹ |
| AUAAAGGCGCCAGAACUACAGAAAUGUAGUUGUCGAGGAGGAGGUUUAUCGAAUUUCAGGCGGAUGCCUCCAAA | < 1e-05 s⁻¹ |  |  | < 1e-05 s⁻¹ |  |
| AUAAAAGCGCCAGAACUACAGAAAUGUAGUUGACGAGGAGGAGGUUUAUCGAAUUUUCGGCGGAUGGCUGCAAA |  | < 1e-05 s⁻¹ | < 1e-05 s⁻¹ |  |  |
| AUAAAGGCGCCAGUACUACAGAAAUGUAGUUGACGAGGAGGAGGUUUGUCGAAUUUUCGGCGUAUGCCUCCAAA | < 1e-05 s⁻¹ |  |  | < 1e-05 s⁻¹ | < 1e-05 s⁻¹ |
| AUAAAGGCGCCAGAACUACAGAAAUGUAGUUGGCGAGGAGGAGGUUUAUCGAAUUUUCGCCGGAUGCCUCCAAA | < 1e-05 s⁻¹ |  |  | < 1e-05 s⁻¹ |  |
| AUAAACGCGCUAGAAUUACAGAAAUGUAGGUGACGAGGUGUAGGUUUAUCGAAGUUUCGGCGGAUGCCGCCAAA | < 1e-05 s⁻¹ |  |  |  |  |
| AUAAAAGCGCCAGAACUACAGAAAUGUAGUUGACGAGGAGGAGGUUUAUCGAAUUUUCGGCGGAUGCCUACAAA | 0.000416 ± 0.00014 s⁻¹ | 0.00384 ± 0.0011 s⁻¹ | 0.000267 ± 7.7e-05 s⁻¹ | 0.00093 ± 0.00021 s⁻¹ | 0.000583 ± 4.1e-05 s⁻¹ |
| AUAAAAGCGCCAGAACUACAGAAAUGUAGUUGACGAGGAGGAGGUUUAUCGAAUUUUCGGCGGAUGCCUGCAAA | 0.000401 ± 9.4e-05 s⁻¹ | 0.00395 ± 0.00093 s⁻¹ | 0.000246 ± 5.2e-05 s⁻¹ | 0.0014 ± 0.00021 s⁻¹ | 0.000576 ± 4.7e-05 s⁻¹ |
| AUAAAAGCGCCAGAACUACAGAAAUGUAGUUGACGAGGAGGAGGUUUAUCGAAUUUUCGGCGGAUGCCUUCAAA | 0.00417 ± 0.00021 s⁻¹ | 0.0554 ± 0.0035 s⁻¹ | 0.00149 ± 4.2e-05 s⁻¹ | 0.0095 ± 0.00039 s⁻¹ | 0.0161 ± 0.0012 s⁻¹ |
| AUAAACGCGCCUGAACUACAGAAAUGUAGUUGACGAGGAGAAGGUUUAUCGAAUUUUCGGCGGAUGCCUCCAAA | < 1e-05 s⁻¹ |  |  | < 1e-05 s⁻¹ | < 1e-05 s⁻¹ |
| AUAAACGCGCCAGAUUUACAGAAAUGUAGUUGACGAGGAGGAGGUUUAUCGAAUUUUCGGCGGAUGCCUCCAAA | < 1e-05 s⁻¹ |  |  |  |  |
| AUAAAAGCGCCAGAACUACAGAAAUGUAGUUGACGAGGAGGAGGUUUAUCGAAUUUUCGGCGGAUACCUCAAAA | 0.00048 ± 9.5e-05 s⁻¹ | 0.00424 ± 0.00059 s⁻¹ | 0.000146 ± 2.1e-05 s⁻¹ | 0.0014 ± 0.00036 s⁻¹ |  |
| AUAAAAGCGCCAGAACUACAGAAAUGUAGUUGACGAGGAGGAGGUUUAUCGAAUUUUCGGCGGAUGCUGCAAAA |  |  | < 1e-05 s⁻¹ |  |  |
| AUAAACGUGCCAGAACUACAGAAAUGUAGUUGACGAGGAGGAGGUUUAUCGAAUUUUCGGCGGAUGACUUCAAA | < 1e-05 s⁻¹ |  |  |  |  |
| AUAAAGGCGCUAGAACUACAGAAAUGUAGUUGACGAGGAGGACGUUUAUCGAAUUUUCGGCGGAUGCCUCCAAA | < 1e-05 s⁻¹ |  |  | < 1e-05 s⁻¹ |  |
| AUAAACGCGCCAGAACUACAGAAAUGUAGUUGACCAGGAGGAGGUAUAUCGAAUUUUCGGAGGAUGCCUCCAAA | < 1e-05 s⁻¹ |  |  | < 1e-05 s⁻¹ | < 1e-05 s⁻¹ |
